Molecular target: the molecule itself
Assay: SEC + other: dynamic light scattering

B1: O. brevis BxmR (CPx-ATPase metal-regulated repressor), wild-type (natural protein, Oscillatoria brevis, UniProt Q76L30 1-136, looked up)
chain: MSPKSAVNGAISQPHQENDTPTCDRAHLVDCSRVGDIQTQVLNTAKAQRMAEFFSLLGDANRLRLVSVLAKQELCVCDLAATLGMSESAVSHQLRAMRAMRLVSYRKVGRQVFYSLLDRHVLELYRAVAEHLDEES
B1 was tested, and the “stoichiometry N” value was 2.

— PMC2599807 (Biochemistry, 2008)
